T1: TGFβ2 (human, UniProt P61812 303-414)
T1 construct: Commercial recombinant protein; also called transforming growth factor beta 2
T1 sequence (looked up): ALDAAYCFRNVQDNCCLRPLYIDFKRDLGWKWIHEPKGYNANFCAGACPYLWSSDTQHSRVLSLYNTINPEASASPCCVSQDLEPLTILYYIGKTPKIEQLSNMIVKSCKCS

T2: TGFβ3 (human, UniProt P10600 301-412)
T2 construct: Commercial recombinant protein; also called transforming growth factor beta 3
T2 sequence (looked up): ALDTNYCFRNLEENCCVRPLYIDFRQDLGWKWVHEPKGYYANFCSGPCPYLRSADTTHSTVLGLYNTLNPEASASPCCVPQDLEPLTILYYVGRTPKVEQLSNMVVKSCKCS


Key:
TGFβ2 [1] = biological target: T1, TGFβ2; test: SPR (Biacore 2000), antibody immobilised on CM4 chip, TGFβ injected
Procedure: (§1) A CM4 sensor chip (GE Healthcare) was used on a BIACORE 2000 system (GE Healthcare). The chip was preconditioned with two 30 second injections each at 50 μL/minute flow rate of 100 mM HCl, Glycine pH 2.0, 50 mM NaOH, and running buffer prior to immobilization. Running buffer for immobilization was a HEPES Buffered Saline (HBS-EP+) with 10 mM Hepes, 150 mM Sodium Chloride, 3 mM EDTA, and 0.05% Polysorbate 20 (Teknova). The chip surface was activated with a seven minute injection at 10 μL/minute of a freshly mixed 1:1 solution of 0.1 M N-Hydroxysuccinimide (NHS) and 0.4 M 1-Ethyl-3-(3-dimethylaminopropyl) carbodiimide hydrochloride (EDC). Following the activation injection, 1 ug/mL anti-TGFβ antibody in acetate pH 4.5 was injected at 10 μL/minute for one minute, with injections targeting 120 RU. 8 minutes of 1M Ethanolamine hydrochloride-NaOH pH 8.5 was injected to block the surface. The NHS, EDC, and Ethanolamine used were from the BIACORE Amine Coupling Kit.
(§2) Kinetic Analysis was performed using a running buffer of thoroughly degassed form of the HBS-EP+ buffer above supplemented with 1 mg/mL BSA (Sigma Aldrich, St. Louis Mo.). TGFβ sample injections were performed at 50 μL/minute for four minutes with a 900 second dissociation time. […] Regeneration was then performed with three injections of 30 seconds each of 100 mM HCl in 3 M MgCl₂ followed by a final 30 second blank buffer injection.
(§3) The data were analyzed using Scrubber2 (BioLogic Software, Campbell Australia) and was double referenced by subtracting both the blank flow cell data and the averaged bracketing blank injections. […] TGFβ proteins were injected at the same concentrations as described above at 30 μL/minute.

TGFβ3 [2] = biological target: T2, TGFβ3; test: as above
Procedure: as §1, §2, §3

TGFβ1 [3] = biological target: T3, TGFβ1 (human, UniProt P01137 279-390); test: as above
T3 construct: mature; also called transforming growth factor beta 1
Procedure: as §1, §2, §3

TGFβ2 [4] = biological target: T1, TGFβ2; test: SPR competition: 4 nM TGFβ pre-mixed with 133 nM of the row's molecule, injected over immobilised XPA.42.089 (self competition)
Procedure: (§4) A CM5 sensor chip (GE Healthcare) was used on a BIACORE 2000 system. The chip was preconditioned with four 30 second injections at 50 uL/minute flow rate of 100 mM HCl prior to immobilization. Running buffer for immobilization was a HEPES Buffered Saline (HBS-EP+) with 10 mM Hepes, 150 mM Sodium Chloride, 3 mM EDTA, and 0.05% Polysorbate 20. The chip surface was activated with a seven minute injection at 10 uL/minute of a freshly mixed 1:1 solution of 0.1 M N-Hydroxysuccinimide (NHS) and 0.4 M 1-Ethyl-3-(3-dimethylaminopropyl) carbodiimide hydrochloride (EDC). […] Injections were monitored and performed sequentially to establish immobilization levels very close to 300 RU. Eight minutes of 1 M Ethanolamine hydrochloride-NaOH pH 8.5 was injected to block the surface. The NHS, EDC, and Ethanolamine used were from the BIACORE Amine Coupling Kit. Fc1 was the activated and deactivated control.
(§5) Competition assays were performed using a running buffer of thoroughly degassed form of the HBS-EP+ buffer above supplemented with 1 mg/mL BSA. […] The TGFβ-RIIb-Fc recombinant receptor (R&D Systems) also was included as a competitor. Samples were allowed to come to equilibrium for 40 minutes at room temperature before the BIACORE run was started. Equilibrated samples were then injected at 30 uL/minute for three minutes over all of the flow cells. Regeneration was performed every cycle with one injection of 50 mM NaOH at 50 uL/minute for 6 seconds (5 μLs) and followed by a thirty second buffer injection. Samples were run in duplicates and analyzed for level of TGFβ bound at the end of the three minutes.

TGFβ3 [5] = biological target: T2, TGFβ3; test: as above
Procedure: as §4, §5

TGFβ1 [6] = biological target: T3, TGFβ1; test: as above
Procedure: as §4, §5

TGFβ2 [7] = biological target: T1, TGFβ2; test: SPR (Biacore 2000), TGFβ immobilised on CM1 chip, antibody injected
Procedure: (§6) The chip surface was activated with four minute injections at 20 μL/minute of a freshly mixed 1:1 solution of 0.1M N-Hydroxysuccinimide (NHS) and 0.4M 1-Ethyl-3-(3-dimethylaminopropyl) carbodiimide hydrochloride (EDC). Following the activation injection a 0.1 ug/mL solution of TGFβ in acetate pH 4.0 was injected at 20 μL/minute for several minutes. […] Injections of TGFβ were performed as a series of 1 to 2 minute injections looking at immobilized level between each injection. The target immobilized density of each TGFβ ligand was 30 RU. After the TGFβ immobilization injections, 4 minutes of 1 M Ethanolamine hydrochloride-NaOH pH 8.5 was injected to block the surface.
(§7) Each of the antibodies was diluted in running buffer to 5 μg/mL (33.3 nM) and 4 subsequent five-fold dilutions were prepared setting up concentrations of 33.33 nM, 6.67 nM, 1.33 nM, 267 pM, and 53 pM for each. These were then injected using the Kinject setting for four minutes at 50 μL/minute, with a 900 second dissociation time. Regeneration was then performed with a 12 μL (14.4 second) injection of 100 mM HCl at 50 μL/minute followed by an 18 second buffer injection. Injections were across all flow cells simultaneously and samples were run injected in quadruplicates with blank injections bracketing each set of descending concentration injection groups for each antibody. This means that before the same sample was injected a second time all other concentrations of all antibodies were injected once.
(§8) The data were analyzed using Scrubber2 (BioLogic Software, Campbell Australia) and were double referenced by subtracting both the blank flow cell data and the averaged bracketing blank injections.

TGFβ3 [8] = biological target: T2, TGFβ3; test: as above
Procedure: as §6, §7, §8

TGFβ1 [9] = biological target: T3, TGFβ1; test: as above
Procedure: as §6, §7, §8

TGFβ2 [10] = biological target: T1, TGFβ2; test: cell-based or functional assay
TGFβ1 [11] = biological target: T3, TGFβ1; test: cell-based or functional assay
TGFβ2 [12] = biological target: T1, TGFβ2; test: SPR: 4 nM TGFβ without competitor injected over immobilised XPA.42.089 (about 300 RU)
Procedure: as §4, §5

TGFβ3 [13] = biological target: T2, TGFβ3; test: as above
Procedure: as §4, §5

TGFβ1 [14] = biological target: T3, TGFβ1; test: as above
Procedure: as §4, §5

TGFβ2 [15] = biological target: T1, TGFβ2; test: SPR
TGFβ3 [16] = biological target: T2, TGFβ3; test: SPR
TGFβ1 [17] = biological target: T3, TGFβ1; test: SPR
TGFβ3 [18] = biological target: T2, TGFβ3; test: cell-based or functional assay
TGFβ2 [19] = biological target: T1, TGFβ2; test: SPR competition: 4 nM TGFβ pre-mixed with 133 nM of the row's molecule, injected over immobilised XPA.42.089 (competitor)
Procedure: as §4, §5

TGFβ3 [20] = biological target: T2, TGFβ3; test: as above
Procedure: as §4, §5

TGFβ1 [21] = biological target: T3, TGFβ1; test: as above
Procedure: as §4, §5

| Kd (TGFβ2 [1]) [pM] | koff (TGFβ2 [1]) [s⁻¹] | kon (TGFβ2 [1]) [M⁻¹ s⁻¹] | Kd (TGFβ3 [2]) [pM] | koff (TGFβ3 [2]) [s⁻¹] | kon (TGFβ3 [2]) [M⁻¹ s⁻¹] | Kd (TGFβ1 [3]) [pM] | koff (TGFβ1 [3]) [s⁻¹] | kon (TGFβ1 [3]) [M⁻¹ s⁻¹] | Kd (TGFβ2 [7]) [pM] | koff (TGFβ2 [7]) [s⁻¹] | kon (TGFβ2 [7]) [M⁻¹ s⁻¹] | Kd (TGFβ3 [8]) [pM] | koff (TGFβ3 [8]) [s⁻¹] | kon (TGFβ3 [8]) [M⁻¹ s⁻¹] | Kd (TGFβ1 [9]) [pM] | koff (TGFβ1 [9]) [s⁻¹] | kon (TGFβ1 [9]) [M⁻¹ s⁻¹] | IL-11 Release Assay - IC50 (A549 cells) (TGFβ2 [10]) [µg/mL] | IL-11 Release Assay - IC50 (A549 cells) (TGFβ1 [11]) [µg/mL] | Binder | also measured |
| --- | --- | --- | --- | --- | --- | --- | --- | --- | --- | --- | --- | --- | --- | --- | --- | --- | --- | --- | --- | --- | --- |
| 25 | 0.000414 | 1.62e+07 | 1400 | 0.0109 | 7.7e+06 | 3.8 | 0.000167 | 4.4e+07 | 290 | 0.00139 | 4.8e+06 | > 17000 | 0.057 | 3.4e+06 | 177 | 0.00106 | 5.98e+06 | 0.058 | 0.037 | XPA.42.089 (antibody, IgG2, V domains shown) VH: QVQLVQSGAEVKKPGSSVKVSCKASGGTFSSYAISWVRQAPGQGLEWMGGIIPIFGTANYAQKFQGRVTITADESTSTAYMELSSLRSEDTAVYYCARGLWEVRALPSVYWGQGTLVTVSS VL: SYELTQPPSVSVAPGQTARITCGANDIGSKSVHWYQQKAGQAPVLVVSEDIIRPSGIPERISGSNSGNTATLTISRVEAGDEADYYCQVWDRDSDQYVFGTGTKVTVLG | average RU of TGFβ binding (TGFβ2 [4]): 0.363 RU; average RU of TGFβ binding (TGFβ3 [5]): 9.77 RU; average RU of TGFβ binding (TGFβ1 [6]): 1.7 RU; average RU of TGFβ binding (TGFβ2 [12]): 61 RU; average RU of TGFβ binding (TGFβ3 [13]): 23.6 RU; average RU of TGFβ binding (TGFβ1 [14]): 63.9 RU |
| – | – | – | – | – | – | – | – | – | – | – | – | – | – | – | – | – | – | – | – | TGFβ-RI (recombinant form) (receptor, UniProt P36897 34-126, looked up, also called TGFβ receptor type 1 protein; TGFβ-R1) LQCFCHLCTKDNFTCVTDGLCFVSVTETTDKVIHNSMCIAEIDLIPRDRPFVCAPSSKTGSVTTTYCCNQDHCNKIELPTTVKSSPGLGPVEL | binding result (TGFβ2 [15]): no binding; binding result (TGFβ3 [16]): no binding; binding result (TGFβ1 [17]): no binding |
| 2.9 | 4.99e-05 | 1.71e+07 | 5.7 | 7.5e-05 | 1.3e+07 | 1.7 | 7.2e-05 | 4.25e+07 | 31 | 0.000394 | 1.28e+07 | 54 | 0.000665 | 1.23e+07 | 32 | 0.000363 | 1.14e+07 | 0.001 | 0.0004 | XPA.42.681 (antibody, IgG2, V domains shown) VH: not shown VL: SYVLTQPPSVSVAPGKTARITCGGNNIGFRSVHWYQQKSGQAPVLVIYFDRARPSGIPERFSASNSENTATLTIRRVEAGDEADYYCQVWDSDSDDLVFGGGTQLTVLG | IL-11 Release Assay - IC50 (A549 cells) (TGFβ3 [18]): 0.0008 µg/mL |
| 51 | 0.000535 | 1.04e+07 | 455 | 0.00384 | 8.45e+06 | 59 | 0.000905 | 1.53e+07 | 109 | 0.000798 | 7.3e+06 | 1300 | 0.00696 | 5.45e+06 | 313 | 0.0017 | 5.44e+06 | 0.111 | 0.221 | XPA.42.068 (antibody, V domains shown) VH: not shown VL: SSELTQPPSVSVAPGEKARITCGGNNIGRKSVHWYQQRPGQAPVVVLYYDRVRPSGIPERFSGSNSGNTATLTITRVEAGDEADYFCQVWDNTSEHVVFGGGTQLTVLG | average RU of TGFβ binding (TGFβ2 [19]): 5.18 RU; average RU of TGFβ binding (TGFβ3 [20]): 7.32 RU; average RU of TGFβ binding (TGFβ1 [21]): 10.8 RU; IL-11 Release Assay - IC50 (A549 cells) (TGFβ3 [18]): 1.79 µg/mL |
